Test results published in the supplement of paper PMC9112550, “Optimization of the antimicrobial peptide Bac7 by deep mutational scanning” (BMC Biology, 2022).

Test system: Escherichia coli TOP10
Experiment: shrunken log2 fold change of peptide-encoding DNA abundance (4.5 h post-induction vs induction); higher = less antimicrobial activity (less host growth inhibition)
Conditions: time post-induction: 4.5 h; library: site-saturation at positions 5, 18, 19, 20
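Also: peptides expressed intracellularly from a pBAD plasmid library in pooled LB shake-flask culture, induced with 0.3% L-arabinose, DNA abundance read by NGS, three biological replicates, DESeq2 with apeglm shrinkage.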

Sequence | shrunken log2 fold change
RRIRLRPPRLPRPRPRPIAGPRP | -0.086
RRIRKRPPRLPRPRPRPKATPRP | 0.0944
RRIRTRPPRLPRPRPRPIWKPRP | 0.0742
RRIRIRPPRLPRPRPRPQFHPRP | -1.12
RRIRMRPPRLPRPRPRPVIMPRP | -0.101
RRIRERPPRLPRPRPRPHNMPRP | -0.51
RRIRVRPPRLPRPRPRPFNPPRP | -0.484
RRIRPRPPRLPRPRPRPSMEPRP | -0.157
RRIRFRPPRLPRPRPRPGLEPRP | -0.0646
RRIRVRPPRLPRPRPRPWIEPRP | -0.104
RRIRERPPRLPRPRPRPHLCPRP | -0.101
RRIRNRPPRLPRPRPRPETMPRP | -0.0713
RRIRSRPPRLPRPRPRPNVFPRP | -0.075
RRIRERPPRLPRPRPRPTCIPRP | -0.23
RRIRERPPRLPRPRPRPKRGPRP | 0.385
RRIRGRPPRLPRPRPRPIGQPRP | 0.0805
RRIRLRPPRLPRPRPRPWKPPRP | -0.0142
RRIRVRPPRLPRPRPRPIAMPRP | -0.0565
RRIRKRPPRLPRPRPRPYRYPRP | -0.14
RRIRRRPPRLPRPRPRPIDEPRP | -0.106
RRIRVRPPRLPRPRPRPKEFPRP | 0.0951
RRIRIRPPRLPRPRPRPFFKPRP | -0.629
RRIRSRPPRLPRPRPRPLNNPRP | -0.124
RRIRCRPPRLPRPRPRPDTAPRP | -0.051
RRIRFRPPRLPRPRPRPWDHPRP | -0.483

Sequence | shrunken log2 fold change
RRIRMRPPRLPRPRPRPCYVPRP | -0.506
RRIRNRPPRLPRPRPRPRVQPRP | -0.00489
RRIRMRPPRLPRPRPRPIPSPRP | 0.0101
RRIRVRPPRLPRPRPRPQCTPRP | -0.149
RRIRLRPPRLPRPRPRPRADPRP | 2.32
RRIRKRPPRLPRPRPRPICSPRP | -9.46e-05
RRIRMRPPRLPRPRPRPVAQPRP | 0.963
RRIRRRPPRLPRPRPRPHPLPRP | 0.211
RRIRNRPPRLPRPRPRPQEMPRP | -0.218
RRIRYRPPRLPRPRPRPKEHPRP | -0.366
RRIRKRPPRLPRPRPRPMKDPRP | 0.618
RRIRLRPPRLPRPRPRPAVKPRP | -0.131
RRIRCRPPRLPRPRPRPSVVPRP | -0.261
RRIRWRPPRLPRPRPRPMNGPRP | -0.131
RRIRPRPPRLPRPRPRPPRNPRP | 0.315
RRIRMRPPRLPRPRPRPVATPRP | 1.64
RRIRVRPPRLPRPRPRPQDAPRP | -0.443
RRIRERPPRLPRPRPRPIYKPRP | -0.305
RRIRIRPPRLPRPRPRPDPMPRP | -0.205
RRIRGRPPRLPRPRPRPEPPPRP | 1.79
RRIRHRPPRLPRPRPRPPSRPRP | 0.17
RRIRDRPPRLPRPRPRPIGDPRP | -0.00843
RRIRIRPPRLPRPRPRPTIHPRP | -0.592
RRIRPRPPRLPRPRPRPCNRPRP | -0.148
RRIRHRPPRLPRPRPRPKAPPRP | 0.0258

Sequence | shrunken log2 fold change
RRIRMRPPRLPRPRPRPNEWPRP | 0.23
RRIRARPPRLPRPRPRPWDDPRP | 0.177
RRIRFRPPRLPRPRPRPAQIPRP | -0.00279
RRIRLRPPRLPRPRPRPPMTPRP | 0.907
RRIRFRPPRLPRPRPRPLWPPRP | 0.264
RRIRFRPPRLPRPRPRPQWLPRP | -0.0613
RRIRDRPPRLPRPRPRPHAMPRP | 0.158
RRIRMRPPRLPRPRPRPRVWPRP | 2.08
RRIRARPPRLPRPRPRPCTGPRP | -0.041
RRIRLRPPRLPRPRPRPHPSPRP | -0.0856
RRIRQRPPRLPRPRPRPIAYPRP | -0.133
RRIRGRPPRLPRPRPRPPICPRP | 0.155
RRIRNRPPRLPRPRPRPGWIPRP | -0.265
RRIRFRPPRLPRPRPRPEIGPRP | -0.0537
RRIRGRPPRLPRPRPRPNGHPRP | 0.197
RRIRIRPPRLPRPRPRPEMRPRP | -0.0182
RRIRSRPPRLPRPRPRPHIPPRP | -0.836
RRIRPRPPRLPRPRPRPRHQPRP | 0.31
RRIRRRPPRLPRPRPRPPKTPRP | 0.108
RRIRFRPPRLPRPRPRPWLQPRP | -0.163
RRIRCRPPRLPRPRPRPLLKPRP | -0.185
RRIRIRPPRLPRPRPRPFPMPRP | -0.412
RRIRTRPPRLPRPRPRPTDMPRP | -0.0264
RRIRGRPPRLPRPRPRPCSWPRP | 0.19
RRIRWRPPRLPRPRPRPLDWPRP | 0.355

Sequence | shrunken log2 fold change
RRIRRRPPRLPRPRPRPPDRPRP | 0.21
RRIRWRPPRLPRPRPRPFVVPRP | -0.242
RRIRMRPPRLPRPRPRPDSYPRP | 0.0873
RRIRWRPPRLPRPRPRPSVVPRP | -0.00267
RRIRYRPPRLPRPRPRPIMGPRP | -0.0134
RRIRARPPRLPRPRPRPMDMPRP | -0.128
RRIRHRPPRLPRPRPRPQEHPRP | -0.389
RRIRGRPPRLPRPRPRPQLNPRP | 0.368
RRIRSRPPRLPRPRPRPPIQPRP | 0.0395
RRIRFRPPRLPRPRPRPWDAPRP | -0.12
RRIRLRPPRLPRPRPRPYQNPRP | -0.0985
RRIRCRPPRLPRPRPRPAAEPRP | 0.829
RRIRSRPPRLPRPRPRPHCAPRP | -0.0311
RRIRNRPPRLPRPRPRPFVAPRP | -0.41
RRIRNRPPRLPRPRPRPHFLPRP | -0.217
RRIRKRPPRLPRPRPRPIGHPRP | 0.0336
RRIRERPPRLPRPRPRPIEGPRP | 0.0039
RRIRRRPPRLPRPRPRPMQVPRP | -0.198
RRIRGRPPRLPRPRPRPAITPRP | 0.721
RRIRDRPPRLPRPRPRPCPIPRP | -0.00104
RRIRNRPPRLPRPRPRPCLNPRP | -0.0299
RRIRCRPPRLPRPRPRPTMGPRP | -0.136
RRIRTRPPRLPRPRPRPPGKPRP | 0.129
RRIRDRPPRLPRPRPRPKEYPRP | -0.0963
RRIRLRPPRLPRPRPRPCEHPRP | -0.00776

Sequence | shrunken log2 fold change
RRIRVRPPRLPRPRPRPDFYPRP | -0.25
RRIRVRPPRLPRPRPRPCYRPRP | -0.00925
RRIRLRPPRLPRPRPRPLTPPRP | 0.62
RRIRKRPPRLPRPRPRPFYVPRP | -0.0997
RRIRHRPPRLPRPRPRPTGGPRP | 0.0928
RRIRRRPPRLPRPRPRPDRNPRP | 0.00393
RRIRNRPPRLPRPRPRPDHPPRP | -0.0362
RRIRDRPPRLPRPRPRPWRIPRP | -0.139
RRIRTRPPRLPRPRPRPQDGPRP | -0.0217
RRIRGRPPRLPRPRPRPKDWPRP | 0.914
RRIRIRPPRLPRPRPRPNWLPRP | -0.0339
RRIRFRPPRLPRPRPRPEGCPRP | 0.013
RRIRMRPPRLPRPRPRPIVMPRP | 0.163
RRIRERPPRLPRPRPRPVCVPRP | -0.0194
RRIRVRPPRLPRPRPRPDALPRP | -0.0285
RRIRMRPPRLPRPRPRPDKKPRP | -0.0148
RRIRLRPPRLPRPRPRPHMRPRP | 0.125
RRIRWRPPRLPRPRPRPDLFPRP | 0.133
RRIRSRPPRLPRPRPRPHYTPRP | -0.728
RRIRWRPPRLPRPRPRPHLFPRP | 0.0795
RRIRVRPPRLPRPRPRPQMQPRP | -0.325
RRIRARPPRLPRPRPRPWYCPRP | -0.306
RRIRFRPPRLPRPRPRPHWKPRP | -0.162
RRIRCRPPRLPRPRPRPKRQPRP | 0.13
RRIRNRPPRLPRPRPRPNVSPRP | 0.0376
